Consider 6 molecules from patent US20210253718A1, “FRIZZLED5 PROTEIN-BINDING AGENTS” (Modmab Therapeutics Corporation, priority 2016, published 2021).

Residue numbers refer to the chain shown, from its start.

Assay [1] relates to PATU8988S cells. Nature of the assay: Effect of anti-FZD5 Fabs on proliferation of pancreatic cancer cell lines (percent growth inhibition). Conditions: Fab 2 μg/ml. The assay is classed as cell-based, human.
Assay [2] has as its system PATU8988S cells. The assay is described as above. Type of assay: cell-based, human. Conditions: Fab 10 μg/ml. The method, then:
(§1) The effect of presently disclosed anti-FZD5 Fabs on proliferation of RNF43 loss-of-function mutant pancreatic cancer cell lines HPAFII, PATU8988S and ASPC-1; and on pancreatic cancer cell line RWP1, was tested at […] and 10 μg/ml.

Another assay has as its system HPAFII cells. Described as above. Conditions: for percent growth inhibition, HPAFII 2 μg/ml: Fab 2 μg/ml; for percent growth inhibition, HPAFII 10 μg/ml: Fab 10 μg/ml. Type of assay: cell-based, human. Here is the method:
as §1

Assay [3] relates to RWP1 cells. Described as above. Conditions: Fab 10 μg/ml. Type of assay: cell-based, human. The method, then: as §1
For assay [4], the system named is ASPC-1 cells. The assay is described as above. Conditions: Fab 10 μg/ml. The assay is classed as cell-based, human. Here is the method:
as §1

In a further assay the target is T1, FZD7 CRD (Homo sapiens, UniProt O75084).
T1 construct: D45-S169; GPI anchor signal (C); expressed in transfected cells; host or cells: CHO cells, lentiviral pLenti-puro
Nature of the assay: Immunofluorescence of anti-FZD5 Fab binding to CHO cells overexpressing Frizzled CRD. Details: key: −: no binding; +: very weak binder; ++: weak binder; +++: good binder; ++++: very good binder. The method, boiled down:
(§2)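 Specificity of anti-FZD5 Fabs was tested on CHO cells displaying membrane-anchored Frizzled CRDs (myc-tagged, GPI-linked), one family member per line. Detection was by immunofluorescence.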

The next assay concerns the target T2, FZD6 CRD (Homo sapiens, UniProt O60353).
T2 construct: S20-P146; GPI anchor signal (C); expressed in transfected cells; host or cells: CHO cells, lentiviral pLenti-puro
T2 sequence (O60353 20-146): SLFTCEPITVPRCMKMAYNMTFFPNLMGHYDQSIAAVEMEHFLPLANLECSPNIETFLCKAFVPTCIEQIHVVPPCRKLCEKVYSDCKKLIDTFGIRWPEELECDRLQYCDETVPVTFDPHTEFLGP
Described as above. Details: key: −: no binding; +: very weak binder; ++: weak binder; +++: good binder; ++++: very good binder. The method, boiled down: as §2

Another assay deals with T3, FZD10 CRD (Homo sapiens, UniProt Q9ULW2).
T3 construct: 30-156; GPI anchor signal (C); expressed in transfected cells; host or cells: CHO cells, lentiviral pLenti-puro
T3 sequence (Q9ULW2 30-156): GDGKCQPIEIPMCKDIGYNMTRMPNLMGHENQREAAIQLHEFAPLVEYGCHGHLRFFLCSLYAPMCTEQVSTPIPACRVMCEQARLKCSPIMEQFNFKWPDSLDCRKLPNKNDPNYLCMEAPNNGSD
Described as above. Details: key: −: no binding; +: very weak binder; ++: weak binder; +++: good binder; ++++: very good binder. The method, boiled down:
as §2

Assay [5] has as its system RWP1 cells. The assay can be described thus: Effect of anti-FZD5 Fabs on proliferation of pancreatic cancer cell lines (percent growth inhibition). The assay is classed as cell-based, human. Conditions: Fab 2 μg/ml.
The test system of assay [6] is ASPC-1 cells. The assay is described as above. The assay is classed as cell-based, human. Conditions: Fab 2 μg/ml.

B1: Fab-2910: anti-FZD5 Fab with antibody variable region Fv-2910; CDR SEQ ID NOs: 35, 36, 49, 88, 125, 162 (antibody, V domains shown)
VH: EVQLVESGGGLVQPGGSLRLSCAASGFNISYSYMHWVRQAPGKGLEWVASIYSSSSSTSYADSVKGRFTISADTSKNTAYLQMNSLRAEDTAVYYCARGAMDYWGQGTLVTVSS
VL: DIQMTQSPSSLSASVGDRVTITCRASQSVSSAVAWYQQKPGKAPKLLIYSASSLYSGVPSRFSGSRSGTDFTLTISSLQPEDFATYYCQQWYGSHLITFGQGTKVEIK
Regarding B1, the “percent growth inhibition, PATU8988s 2 μg/ml” value with PATU8988S cells [1] came to 8.48%. Moreover, the “percent growth inhibition, PATU8988s 10 μg/ml” value in the assay with PATU8988S cells [2] was −12.84%. In the assay with HPAFII cells, the “percent growth inhibition, HPAFII 2 μg/ml” value is recorded as 26.86% and the “percent growth inhibition, HPAFII 10 μg/ml” value is 41.81%. Further, the “percent growth inhibition, RWP1 10 μg/ml” value in the assay on RWP1 cells [3] turned out to be 54.51%. The “percent growth inhibition, ASPC-1 10 μg/ml” value in the assay on ASPC-1 cells [4] was 41.71%. Moreover, in the assay with FZD7 CRD, the “Immunofluorescence binding, Frizzled CRD overexpressed on CHO cells: FZD7” value (from here on “Immunofluorescence binding … FZD7”) is on record as “+”. The “Immunofluorescence binding, Frizzled CRD overexpressed on CHO cells: FZD6” value (shortened to “Immunofluorescence binding … FZD6”) with FZD6 CRD was “−”. The “Immunofluorescence binding, Frizzled CRD overexpressed on CHO cells: FZD10” value (“Immunofluorescence binding … FZD10” below) with FZD10 CRD is recorded as “−”. Besides, the “percent growth inhibition, RWP1 2 μg/ml” value in the assay with RWP1 cells [5] came to 71.49%. For the same molecule, the “percent growth inhibition, ASPC-1 2 μg/ml” value in the assay with ASPC-1 cells [6] is on record as 39.05%.

B2: Fab-2912: anti-FZD5 Fab with antibody variable region Fv-2912; CDR SEQ ID NOs: 35, 36, 51, 90, 127, 164 (antibody, V domains shown)
VH: EVQLVESGGGLVQPGGSLRLSCAASGFNISYSYIHWVRQAPGKGLEWVASISSSSGYTSYADSVKGRFTISADTSKNTAYLQMNSLRAEDTAVYYCARTVRGSKKPYFSGWAMDYWGQGTLVTVSS
VL: B1 VL with W91F, G93F, S94P, H95Y
Regarding B2, the “percent growth inhibition, PATU8988s 2 μg/ml” value in the assay on PATU8988S cells [1] is on record as 1.11%. Further, the “percent growth inhibition, PATU8988s 10 μg/ml” value in the assay on PATU8988S cells [2] was −25.71%. In the assay on HPAFII cells, the “percent growth inhibition, HPAFII 2 μg/ml” value worked out at 7.76% and the “percent growth inhibition, HPAFII 10 μg/ml” value is given as −5.41%. Besides, the “percent growth inhibition, RWP1 10 μg/ml” value with RWP1 cells [3] was determined as 27.25%. In addition, in the assay on ASPC-1 cells [4], the “percent growth inhibition, ASPC-1 10 μg/ml” value is reported as 1.76%. Also, the “Immunofluorescence binding … FZD7” value with FZD7 CRD was “++++”. In addition, in the assay with FZD6 CRD, the “Immunofluorescence binding … FZD6” value is given as “−”. Also, in the assay with FZD10 CRD, the “Immunofluorescence binding … FZD10” value is given as “−”. Besides, the “percent growth inhibition, RWP1 2 μg/ml” value in the assay on RWP1 cells [5] is reported as 15.55%. Further, the “percent growth inhibition, ASPC-1 2 μg/ml” value in the assay on ASPC-1 cells [6] is listed as 6.93%.

B3: Fab-2914: anti-FZD5 Fab with antibody variable region Fv-2914; CDR SEQ ID NOs: 35, 36, 53, 92, 129, 162 (antibody, V domains shown)
VH: B1 VH with S30Y, S53P
VL: B1 VL with G93Y, S94G, H95S
Turning to B3, in the assay with PATU8988S cells [1], the “percent growth inhibition, PATU8988s 2 μg/ml” value was −15.14%. For the same molecule, the “percent growth inhibition, PATU8988s 10 μg/ml” value in the assay on PATU8988S cells [2] is reported as −26.59%. Moreover, in the assay on HPAFII cells, the “percent growth inhibition, HPAFII 2 μg/ml” value is recorded as −4.97% and the “percent growth inhibition, HPAFII 10 μg/ml” value worked out at 6.47%. In addition, the “percent growth inhibition, RWP1 10 μg/ml” value with RWP1 cells [3] was 78.98%. Besides, the “percent growth inhibition, ASPC-1 10 μg/ml” value in the assay on ASPC-1 cells [4] came to 38.30%. For the same molecule, in the assay with FZD7 CRD, the “Immunofluorescence binding … FZD7” value is reported as “++++”. For the same molecule, the “Immunofluorescence binding … FZD6” value with FZD6 CRD is given as “−”. The “Immunofluorescence binding … FZD10” value with FZD10 CRD is “−”. The “percent growth inhibition, RWP1 2 μg/ml” value with RWP1 cells [5] is 68.03%. Moreover, in the assay on ASPC-1 cells [6], the “percent growth inhibition, ASPC-1 2 μg/ml” value is 16.76%.

B4: Fab-2907: anti-FZD5 Fab with antibody variable region Fv-2907; CDR SEQ ID NOs: 35, 36, 46, 85, 122, 159 (antibody, V domains shown)
VH: EVQLVESGGGLVQPGGSLRLSCAASGFNIYSSYMHWVRQAPGKGLEWVASISSYSGSTYYADSVKGRFTISADTSKNTAYLQMNSLRAEDTAVYYCARSSWGAYIVSYGFDYWGQGTLVTVSS
VL: DIQMTQSPSSLSASVGDRVTITCRASQSVSSAVAWYQQKPGKAPKLLIYSASSLYSGVPSRFSGSRSGTDFTLTISSLQPEDFATYYCQQVGYWWGLITFGQGTKVEIK
Turning to B4, the “percent growth inhibition, PATU8988s 2 μg/ml” value with PATU8988S cells [1] is reported as −12.76%. Also, the “percent growth inhibition, PATU8988s 10 μg/ml” value in the assay with PATU8988S cells [2] is −42.69%. Besides, in the assay on HPAFII cells, the “percent growth inhibition, HPAFII 2 μg/ml” value is on record as 15.15% and the “percent growth inhibition, HPAFII 10 μg/ml” value worked out at 14.20%. Moreover, in the assay on RWP1 cells [3], the “percent growth inhibition, RWP1 10 μg/ml” value is recorded as 28.57%. Also, the “percent growth inhibition, ASPC-1 10 μg/ml” value in the assay on ASPC-1 cells [4] came to 23.78%. In the assay with FZD7 CRD, the “Immunofluorescence binding … FZD7” value was “+”. The “Immunofluorescence binding … FZD6” value with FZD6 CRD was “−”. For the same molecule, the “Immunofluorescence binding … FZD10” value with FZD10 CRD was “−”. The “percent growth inhibition, RWP1 2 μg/ml” value with RWP1 cells [5] is listed as 8.52%. Further, the “percent growth inhibition, ASPC-1 2 μg/ml” value in the assay with ASPC-1 cells [6] is given as 10.02%.

B5: Fab-2909: anti-FZD5 Fab with antibody variable region Fv-2909; CDR SEQ ID NOs: 35, 36, 48, 87, 124, 161 (antibody, V domains shown)
VH: B2 VH with Y31S, I34M
VL: B4 VL with V91S, G92W, Y93S, W94Y, W95H, G96Y
For B5, the “percent growth inhibition, PATU8988s 2 μg/ml” value with PATU8988S cells [1] was −9.95%. The “percent growth inhibition, PATU8988s 10 μg/ml” value in the assay on PATU8988S cells [2] is reported as −16.04%. Besides, in the assay on HPAFII cells, the “percent growth inhibition, HPAFII 2 μg/ml” value was found to be 2.87% and the “percent growth inhibition, HPAFII 10 μg/ml” value is −2.57%. The “percent growth inhibition, RWP1 10 μg/ml” value with RWP1 cells [3] is on record as 14.89%. Moreover, the “percent growth inhibition, ASPC-1 10 μg/ml” value in the assay on ASPC-1 cells [4] is −9.30%. Also, the “Immunofluorescence binding … FZD7” value with FZD7 CRD is given as “+”. The “Immunofluorescence binding … FZD6” value in the assay with FZD6 CRD was “−”. Besides, the “Immunofluorescence binding … FZD10” value with FZD10 CRD was “−”. Besides, the “percent growth inhibition, RWP1 2 μg/ml” value in the assay on RWP1 cells [5] is 12.89%. Moreover, the “percent growth inhibition, ASPC-1 2 μg/ml” value in the assay with ASPC-1 cells [6] is given as −6.84%.

B6: Fab-2913: anti-FZD5 Fab with antibody variable region Fv-2913; CDR SEQ ID NOs: 35, 36, 52, 91, 128, 165 (antibody, V domains shown)
VH: EVQLVESGGGLVQPGGSLRLSCAASGFNISYSSIHWVRQAPGKGLEWVASIYPYSSSTSYADSVKGRFTISADTSKNTAYLQMNSLRAEDTAVYYCARYGYYGLDYWGQGTLVTVSS
VL: B4 VL with V91W, Y93V, W94S, W95H, G96Y, I98F
Turning to B6, the “percent growth inhibition, PATU8988s 2 μg/ml” value in the assay on PATU8988S cells [1] was −15.09%. In the assay with PATU8988S cells [2], the “percent growth inhibition, PATU8988s 10 μg/ml” value is recorded as −43.04%. In the assay with HPAFII cells, the “percent growth inhibition, HPAFII 2 μg/ml” value was −5.59% and the “percent growth inhibition, HPAFII 10 μg/ml” value is recorded as −28.52%. Besides, the “percent growth inhibition, RWP1 10 μg/ml” value in the assay with RWP1 cells [3] came to 68.29%. The “percent growth inhibition, ASPC-1 10 μg/ml” value with ASPC-1 cells [4] is given as −7.73%. Besides, in the assay with FZD7 CRD, the “Immunofluorescence binding … FZD7” value is reported as “++++”. Also, the “Immunofluorescence binding … FZD6” value with FZD6 CRD is “−”. Moreover, in the assay with FZD10 CRD, the “Immunofluorescence binding … FZD10” value is recorded as “−”. Also, the “percent growth inhibition, RWP1 2 μg/ml” value in the assay with RWP1 cells [5] turned out to be 59.79%. For the same molecule, in the assay on ASPC-1 cells [6], the “percent growth inhibition, ASPC-1 2 μg/ml” value was 2.25%.
